This note sets out measurements from article PMC3511376.

The target of this experiment is HIV-1 envelope glycoprotein gp120 (YU2) (HIV-1 (YU2)) (UniProt P35961). Nature of the experiment: SPR; BIAcore 3000, CM4 chip; gp120YU2 amine-coupled (514 RU for the Lg-CRD chip, 838 RU for the Lg-ECD chip), BSA control flow cell; Langerin injected at 20 µl/min; running buffer 150 mM NaCl, 25 mM Tris pH 7.8, 4 mM CaCl2, 0.005% P20; regeneration with 50 mM EDTA; 1:1 Langmuir fit for Lg-CRD, EC50 from titration for Lg-ECD. Background: SPR reads the build-up and loss of mass on a sensor chip optically.

The term Kd denotes the free concentration of one partner at which half of the binding sites on the other are occupied at equilibrium, for simple one-to-one binding. Lower therefore signals tighter binding. For “Langerin carbohydrate-recognition domain (CRD) (domain or fragment)”, the equilibrium dissociation constant (Kd) is 25 µM. That is a double-digit micromolar value.
